What was measured:
[1] = biological target: Human γ-thrombin (human) (UniProt P00734); assay: fluorescence polarization, fluoresceinated peptide titrated with γ-thrombin
[2] = biological target: Human α-thrombin (human) (UniProt P00734); assay: fluorescence polarization, 2 nM fluoresceinated peptide titrated with α-thrombin
[3] = biological target: Human α-thrombin (human) (UniProt P00734); assay: fluorescence polarization competition against 2 nM fluoresceinated γ′408-427 phosphorylated peptide, 2 µM α-thrombin

Sequence of fluoresceinated γ′408-427 peptide, …-Y(PO3)-DSL-Y(PO3)-PEDDL (P02679 434-453): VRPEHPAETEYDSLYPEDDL

Kd [1] [nM]	Kd [2] [nM]	Ki [3] [nM]	Substance
610	430		fluoresceinated γ′408-427 peptide, …-Y(PO3)-DSL-Y(PO3)-PEDDL
		520	γ′408-427 peptide, doubly phosphorylated, unlabeled, …-Y(PO3)-DSL-Y(PO3)-PEDDL
